Assay results: paper PMC4255728

Columns and labels:
[1] = target: Saccharomyces cerevisiae cytochrome c oxidase, 5B isoenzyme (strain ΔROX1ΔCOX5A, COX5B under its own promoter) (S. cerevisiae) (UniProt P00401)
[2] = target: Saccharomyces cerevisiae cytochrome c oxidase, 5A isoenzyme (strain WTCOX5A) (S. cerevisiae) (UniProt P00401)
[3] = target: Saccharomyces cerevisiae cytochrome c oxidase, 5B isoenzyme (strain COX5B, COX5B downstream of the COX5A promoter) (S. cerevisiae) (UniProt P00401)

Km for cyt c (low-affinity phase), steady-state oxygen consumption of mitos, 1.25-350 μM cyt c, 25°C, pH 6.6, 50 mM KCl, 0.05% DDM [1] [μM] | Km for cyt c (low-affinity phase), steady-state oxygen consumption of mitos, 1.25-350 μM cyt c, 25°C, pH 6.6, 50 mM KCl, 0.05% DDM [2] [μM] | Km for cyt c (low-affinity phase), steady-state oxygen consumption of mitos, 1.25-350 μM cyt c, 25°C, pH 6.6, 50 mM KCl, 0.05% DDM [3] [μM] | Km for cyt c (low-affinity phase of biphasic kinetics), steady-state oxygen consumption of mitos, 1.25-350 μM cyt c, 25°C, pH 6.6, 50 mM KCl, 0.05% DDM [1] [μM] | Km for cyt c (low-affinity phase of biphasic kinetics), steady-state oxygen consumption of mitos, 1.25-350 μM cyt c, 25°C, pH 6.6, 50 mM KCl, 0.05% DDM [2] [μM] | Km for cyt c (low-affinity phase of biphasic kinetics), steady-state oxygen consumption of mitos, 1.25-350 μM cyt c, 25°C, pH 6.6, 50 mM KCl, 0.05% DDM [3] [μM] | Substance
10.8 | 13.9 | 14.5 | – | – | – | Horse heart cytochrome c (from UniProt P00004 1-105) (natural protein)
– | – | – | 41.2 | 29.8 | 39.5 | Yeast iso-1 cytochrome c (isoform-1) (from UniProt P00044 1-109) (natural protein)
– | – | – | 47.8 | 23.9 | 59.5 | Yeast iso-2 cytochrome c (isoform-2) (from UniProt P00045 1-113) (natural protein)
